T1: FcγRIIb extracellular domain with C-terminal His tag (human, UniProt P31994 43-217)
T1 construct: extracellular domain; also called 2b; FcgRIIb
T1 sequence (looked up): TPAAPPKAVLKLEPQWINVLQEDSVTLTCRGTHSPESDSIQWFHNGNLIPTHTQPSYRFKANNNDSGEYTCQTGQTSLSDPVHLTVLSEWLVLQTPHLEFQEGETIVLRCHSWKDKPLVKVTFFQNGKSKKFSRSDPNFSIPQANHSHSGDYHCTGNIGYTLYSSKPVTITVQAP

T2: FcγRIIa H (human, UniProt P12318 34-217)
T2 construct: extracellular domain; also called FcgRIIa H; FcγRIIa type H; not shown: His tag attached to the C terminus
T2 sequence (looked up): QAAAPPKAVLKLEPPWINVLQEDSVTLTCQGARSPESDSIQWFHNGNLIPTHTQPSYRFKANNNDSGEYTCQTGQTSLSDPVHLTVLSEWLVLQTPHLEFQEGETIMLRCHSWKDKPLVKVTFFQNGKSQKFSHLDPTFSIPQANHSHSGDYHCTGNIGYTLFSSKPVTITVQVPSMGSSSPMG

T3: FcγRIIb (human, UniProt P31994 43-217)
T3 construct: extracellular domain; also called FcgRIIb; 2b; not shown: His tag attached to the C terminus
T3 sequence (looked up): T1 sequence (looked up)

B1: GpH7-A5/GpH7-B3 variant E269_01G/GpL16-k0 (antibody, human IgG1, kappa)
heavy 1: not shown
heavy 2: not shown
light: DIVMTQSPLSLPVTPGEPASISCQASESLVHSNRNTYLHWYLQKPGQSPQLLIYKVSNRFSGVPDRFSGSGSGTDFTLKISRVEAEDVGVYYCSQNTHVPPTFGQGTKVEIERTVAAPSVFIFPPSDEQLKSGTASVVCLLNNFYPREAKVQWKVDNALQSGNSQESVTEQDSKDSTYSLSSTLTLSKADYEKHKVYACEVTHQGLSSPVTKSFNRGEC
notes: He Ab: alteration in one H chain only; also called He Ab
B2: GpH7-A5/GpH7-B3 variant L235_12R/GpL16-k0 (antibody, human IgG1, kappa)
heavy 1: not shown
heavy 2: not shown
light: B1 light
notes: as for B1
B3: GpH7-A5/GpH7-B3 variant G236_08L/GpL16-k0 (antibody, human IgG1, kappa)
heavy 1: not shown
heavy 2: not shown
light: B1 light
notes: as for B1
B4: GpH7-A5/GpH7-B3 variant E269_08L/GpL16-k0 (antibody, human IgG1, kappa)
heavy 1: not shown
heavy 2: not shown
light: B1 light
notes: as for B1
B5: GpH7-A5/GpH7-B3 variant E269_18N/GpL16-k0 (antibody, human IgG1, kappa)
heavy 1: not shown
heavy 2: not shown
light: B1 light
notes: as for B1
B6: GpH7-A5/GpH7-B3 variant G236_05P/GpL16-k0 (antibody, human IgG1, kappa)
heavy 1: not shown
heavy 2: not shown
light: B1 light
notes: as for B1
B7: GpH7-A5/GpH7-B3 variant E269_13S/GpL16-k0 (antibody, human IgG1, kappa)
heavy 1: not shown
heavy 2: not shown
light: B1 light
notes: as for B1
B8: GpH7-A5/GpH7-B3 variant E269_06M/GpL16-k0 (antibody, human IgG1, kappa)
heavy 1: not shown
heavy 2: not shown
light: B1 light
notes: as for B1
B9: GpH7-A5/GpH7-B3 variant E269_02A/GpL16-k0 (antibody, human IgG1, kappa)
heavy 1: not shown
heavy 2: not shown
light: B1 light
notes: as for B1
B10: GpH7-A5/GpH7-B3 variant G236_03V/GpL16-k0 (antibody, human IgG1, kappa)
heavy 1: not shown
heavy 2: not shown
light: B1 light
notes: as for B1
B11: GpH7-A5/GpH7-B3 variant E269_12R/GpL16-k0 (antibody, human IgG1, kappa)
heavy 1: not shown
heavy 2: not shown
light: B1 light
notes: as for B1
B12: GpH7-A5/GpH7-B3 variant E269_03V/GpL16-k0 (antibody, human IgG1, kappa)
heavy 1: not shown
heavy 2: not shown
light: B1 light
notes: as for B1
B13: GpH7-A5/GpH7-B3 variant E269_11K/GpL16-k0 (antibody, human IgG1, kappa)
heavy 1: not shown
heavy 2: not shown
light: B1 light
notes: as for B1
B14: GpH7-A5/GpH7-B3 variant E269_16H/GpL16-k0 (antibody, human IgG1, kappa)
heavy 1: not shown
heavy 2: not shown
light: B1 light
notes: as for B1
B15: GpH7-A5/GpH7-B3 variant G236_04F/GpL16-k0 (antibody, human IgG1, kappa)
heavy 1: not shown
heavy 2: not shown
light: B1 light
notes: as for B1
B16: GpH7-A5/GpH7-B3 variant E269_07I/GpL16-k0 (antibody, human IgG1, kappa)
heavy 1: not shown
heavy 2: not shown
light: B1 light
notes: as for B1
B17: GpH7-A5/GpH7-B3 variant G236_07I/GpL16-k0 (antibody, human IgG1, kappa)
heavy 1: not shown
heavy 2: not shown
light: B1 light
notes: as for B1
B18: GpH7-A5/GpH7-B3 variant L234_13S/GpL16-k0 (antibody, human IgG1, kappa)
heavy 1: not shown
heavy 2: not shown
light: B1 light
notes: Heterodimerized IgG1, mutation in the GpH7-B3 chain only; also called He Ab
B19: GpH7-A5/GpH7-B3 variant L234_14T/GpL16-k0 (antibody, human IgG1, kappa)
heavy 1: not shown
heavy 2: not shown
light: B1 light
notes: as for B18
B20: GpH7-A5/GpH7-B3 variant L235_01G/GpL16-k0 (antibody, human IgG1, kappa)
heavy 1: not shown
heavy 2: not shown
light: B1 light
notes: as for B18
B21: GpH7-A5/GpH7-B3 variant L235_11K/GpL16-k0 (antibody, human IgG1, kappa)
heavy 1: not shown
heavy 2: not shown
light: B1 light
notes: as for B18
B22: GpH7-A5/GpH7-B3 variant L235_19Q/GpL16-k0 (antibody, human IgG1, kappa)
heavy 1: not shown
heavy 2: not shown
light: B1 light
notes: as for B18
B23: GpH7-A5/GpH7-B3 variant L234_19Q/GpL16-k0 (antibody, human IgG1, kappa)
heavy 1: not shown
heavy 2: not shown
light: B1 light
notes: as for B18
B24: GpH7-A5/GpH7-B3 variant L235_13S/GpL16-k0 (antibody, human IgG1, kappa)
heavy 1: not shown
heavy 2: not shown
light: B1 light
notes: as for B18
B25: GpH7-A5/GpH7-B3 variant S239_12R/GpL16-k0 (antibody, human IgG1, kappa)
heavy 1: not shown
heavy 2: not shown
light: B1 light
notes: as for B18
B26: GpH7-A5/GpH7-B3 variant L235_18N/GpL16-k0 (antibody, human IgG1, kappa)
heavy 1: not shown
heavy 2: not shown
light: B1 light
notes: as for B18
B27: GpH7-A5/GpH7-B3 variant S239_11K/GpL16-k0 (antibody, human IgG1, kappa)
heavy 1: not shown
heavy 2: not shown
light: B1 light
notes: as for B18
B28: GpH7-A5/GpH7-B3 variant L235_14T/GpL16-k0 (antibody, human IgG1, kappa)
heavy 1: not shown
heavy 2: not shown
light: B1 light
notes: as for B18
B29: GpH7-A5/GpH7-B3 variant S239_16H/GpL16-k0 (antibody, human IgG1, kappa)
heavy 1: not shown
heavy 2: not shown
light: B1 light
notes: as for B18
B30: GpH7-A5/GpH7-B3 variant L234_15Y/GpL16-k0 (antibody, human IgG1, kappa)
heavy 1: not shown
heavy 2: not shown
light: B1 light
notes: as for B18
B31: GpH7-A5/GpH7-B3 variant L235_03V/GpL16-k0 (antibody, human IgG1, kappa)
heavy 1: not shown
heavy 2: not shown
light: B1 light
notes: as for B18
B32: GpH7-A5/GpH7-B3 variant L234_16H/GpL16-k0 (antibody, human IgG1, kappa)
heavy 1: not shown
heavy 2: not shown
light: B1 light
notes: as for B18

Target: T4, FcγRIIIa extracellular domain with C-terminal His tag (human, UniProt P08637 17-208)
T4 construct: extracellular domain; also called 3a; FcgRIIIa
Experiment: SPR; He/Con_3a over He/Con_2b (FcγRIIb)

T4 sequence (P08637 17-208): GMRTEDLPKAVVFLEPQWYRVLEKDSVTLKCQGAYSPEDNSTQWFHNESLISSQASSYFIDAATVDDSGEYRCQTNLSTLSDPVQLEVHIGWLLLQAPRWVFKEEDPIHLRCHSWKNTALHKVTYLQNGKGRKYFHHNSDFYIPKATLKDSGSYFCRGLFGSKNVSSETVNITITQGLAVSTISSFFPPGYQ

Binder	He_3a/2b (IIIa/IIb) [ratio]
B1	1.21
B2	4.29
B3	1.21
B4	1.21
B5	1.29
B6	1.95
B7	1.31
B8	1.25
B9	1.38
B10	1.64
B11	1.72
B12	1.25
B13	2.47
B14	1.33
B15	2.21
B16	1.27
B17	1.93

Target: T4, FcγRIIIa extracellular domain with …
Experiment: SPR, relative to GpH7-A5/GpH7-B3/GpL16-k0

Binder	He/Con_3a [control=100]
B1	62.2
B2	41.2
B3	32.5
B4	52.1
B5	57.8
B6	37.1
B7	62.7
B8	58.5
B9	68.7
B10	57.7
B11	43.2
B12	56.6
B13	44
B14	51.2
B15	87
B16	55.8
B17	59.7

Target: T1, FcγRIIb extracellular domain with …
Experiment: SPR, relative to GpH7-A5/GpH7-B3/GpL16-k0

Binder	He/Con_2b [control=100]
B1	51.5
B3	26.8
B4	42.9
B5	44.8
B6	19
B7	47.8
B8	46.7
B9	49.9
B10	35.3
B11	25.2
B12	45.1
B13	17.8
B14	38.5
B15	39.3
B16	43.9
B17	31

Target: T2, FcγRIIa H
Experiment: ratio of He/Con_2aH to He/Con_2b (relative SPR binding to FcγRIIa H over FcγRIIb)

Binder	He_2aH/2b (IIaH/IIb)
B18	1.36
B19	1.25
B20	1.53
B21	3.61
B22	1.45
B23	1.31
B24	1.37
B25	1.46
B26	1.2
B27	1.94
B28	1.53
B29	1.2
B30	1.25
B31	1.28
B32	1.47

Target: T2, FcγRIIa H
Experiment: SPR (Biacore), antibody captured, FcγR as analyte; binding relative to GpH7-A5/GpH7-B3/GpL16-k0 = 100

Binder	He/Con_2aH [control = 100]
B18	80.4
B19	78.1
B20	54.1
B21	22.7
B22	62
B23	79.2
B24	66.1
B25	57.1
B26	66.1
B27	48.1
B28	71.5
B29	59.4
B30	120
B31	85.3
B32	87.3

Target: T3, FcγRIIb
Experiment: as above

Binder	He/Con_2b [control = 100]
B18	59.3
B19	62.5
B20	35.4
B21	6.3
B22	42.6
B23	60.3
B24	48.2
B25	39.1
B26	54.9
B27	24.7
B28	46.8
B29	49.4
B30	96.3
B31	66.4
B32	59.4

From patent US20180155451A1 (published 2018)
